Assays:
[1] = molecular target: T1, human syndecan-1 (human, UniProt P18827 23-310); assay: pull-down from lysates of transfected cells with intein-tagged deletion mutant
T1 construct: also called mammalian syndecan-1; CD138
T1 sequence (looked up): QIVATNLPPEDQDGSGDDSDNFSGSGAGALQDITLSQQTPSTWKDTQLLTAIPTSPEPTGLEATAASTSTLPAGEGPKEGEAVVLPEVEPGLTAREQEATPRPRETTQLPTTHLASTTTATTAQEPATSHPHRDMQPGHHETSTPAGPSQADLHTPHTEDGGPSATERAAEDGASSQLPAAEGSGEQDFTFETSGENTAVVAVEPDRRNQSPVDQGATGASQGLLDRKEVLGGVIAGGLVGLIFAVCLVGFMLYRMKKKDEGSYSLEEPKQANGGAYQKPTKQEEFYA
Experimental: (§1) After washing extensively in physiological salt-containing buffer, bound protein was eluted with 1 M NaCl, and identified with avidin-peroxidase using an ECL blot method. […] 293T cells stably transfected with human syndecan-2 or −4 were kindly provided by Dr. Atsushi Utani (Chiba University). […] Immunolocalization of syndecan-1 in human lacrimal glands was performed using anti-human syndecan-1 antibody (CD138).

[2] = molecular target: T1, human syndecan-1; assay: lacritin affinity column, biotinylated cell surface proteins, elution with 1 M NaCl, sequencing
Experimental: as §1

[3] = molecular target: human syndecan-2 (human, UniProt P34741 19-201); assay: pull-down from lysates of transfected 293T cells with intein-tagged lacritin
Experimental: as §1

[4] = molecular target: T2, human syndecan-4 (human, UniProt P31431 19-198); assay: as above
T2 sequence (looked up): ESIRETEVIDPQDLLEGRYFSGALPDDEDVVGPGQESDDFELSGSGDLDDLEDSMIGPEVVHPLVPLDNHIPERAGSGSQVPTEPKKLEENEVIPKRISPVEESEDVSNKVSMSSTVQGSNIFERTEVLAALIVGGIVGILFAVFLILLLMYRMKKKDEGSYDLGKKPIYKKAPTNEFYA
Experimental: as §1

[5] = molecular target: T1, human syndecan-1; assay: pull-down from lysates of transfected cells with intein-tagged lacritin, SDS PAGE
Experimental: as §1

human syndecan-2, sequence (P34741 19-201 limits assumed): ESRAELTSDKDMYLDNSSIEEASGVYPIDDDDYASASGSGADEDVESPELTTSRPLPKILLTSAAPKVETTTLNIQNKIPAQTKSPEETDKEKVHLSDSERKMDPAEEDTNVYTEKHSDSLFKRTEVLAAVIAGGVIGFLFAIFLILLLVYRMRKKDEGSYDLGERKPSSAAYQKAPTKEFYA

B1: intein-tagged lacritin deletion mutant C-25 (ligand)
chain: EDASSDSTGADPAQEAGTSKPNEEISGPAEPASPPETTTTAQETSAAAVQGTAKVTSSRQELNPLKSIVEKSILLTEQALAKAGKGMHGGVPGG
notes: Pull-downs used 'intein deletion mutants'; also called lacritin lacking 25 C-terminal amino acids; not shown: intein tag of vector pTYB11
B1: no binding [1].

B2: mature lacritin (recombinant, from pLAC, cleaved from intein) (ligand)
chain: EDASSDSTGADPAQEAGTSKPNEEISGPAEPASPPETTTTAQETSAAAVQGTAKVTSSRQELNPLKSIVEKSILLTEQALAKAGKGMHGGVPGGKQFIENGSEFAQKLLKKFSLLKPWA
notes: also called soluble lacritin
B2: binds [2].

B3: intein-tagged lacritin (pLAC lacritin-intein fusion) (ligand, not shown: small tags and cut ends)
chain: B2 chain
B3: no binding [3]; no binding [4]; binds [5].

Reference: patent US20070207522A1 (UNIVERSITY OF VIRGINIA PATENT FOUNDATION, published 2007)
